These results are taken from patent publication EP0651797B1.

Assay [1] has as its target CD3 on cells of tonsillar B cell preparations (human) (UniProt P07766). As to the kind of experiment: FACS staining of highly enriched tonsillar B cells.
For assay [2] the target is unchanged. As to the kind of experiment: FACS staining of highly enriched tonsillar B cells, Donor 2.
Assay [3] shares this target. Put plainly: FACS staining of highly enriched tonsillar B cells, Donor 1.
Assay [4] deals with human CD40 on cells (human) (UniProt P25942). As to the kind of experiment: FACS staining of highly enriched tonsillar B cells.
Assay [5] addresses LeuM3 on cells of tonsillar B cell preparations (human) (UniProt P08571). Put plainly: FACS staining of highly enriched tonsillar B cells.
Assay [6] has as its target human B7 antigen on cells (human) (UniProt P33681). Put plainly: FACS of tonsillar B cells cultured for 5 days with immobilized anti-(IgM) antibodies and IL-2.
Assay [7] shares this target. As to the kind of experiment: FACS staining of highly enriched tonsillar B cells, Donor 2.
Assay [8] shares this target. As to the kind of experiment: FACS staining of highly enriched tonsillar B cells, Donor 1.
Assay [9] has the same target. Put plainly: cell-based or functional assay.

Sequence of UniProt P33681 (P33681 35-288): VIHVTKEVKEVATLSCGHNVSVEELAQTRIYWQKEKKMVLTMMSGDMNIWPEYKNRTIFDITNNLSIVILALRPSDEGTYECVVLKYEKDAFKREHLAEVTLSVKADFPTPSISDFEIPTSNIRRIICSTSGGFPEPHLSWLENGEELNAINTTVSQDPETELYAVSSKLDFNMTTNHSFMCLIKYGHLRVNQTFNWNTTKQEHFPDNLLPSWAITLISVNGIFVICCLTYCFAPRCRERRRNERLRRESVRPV
Sequence of UniProt P08571 (P08571 20-345): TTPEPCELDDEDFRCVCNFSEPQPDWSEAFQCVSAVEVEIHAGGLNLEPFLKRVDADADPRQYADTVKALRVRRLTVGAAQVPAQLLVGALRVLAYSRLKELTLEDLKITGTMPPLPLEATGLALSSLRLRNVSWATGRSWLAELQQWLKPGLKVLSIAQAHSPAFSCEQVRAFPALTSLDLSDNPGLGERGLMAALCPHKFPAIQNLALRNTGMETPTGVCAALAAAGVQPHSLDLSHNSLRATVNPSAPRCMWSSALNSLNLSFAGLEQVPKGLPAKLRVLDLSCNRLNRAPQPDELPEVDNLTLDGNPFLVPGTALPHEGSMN
Sequence of UniProt P25942 (P25942 21-277): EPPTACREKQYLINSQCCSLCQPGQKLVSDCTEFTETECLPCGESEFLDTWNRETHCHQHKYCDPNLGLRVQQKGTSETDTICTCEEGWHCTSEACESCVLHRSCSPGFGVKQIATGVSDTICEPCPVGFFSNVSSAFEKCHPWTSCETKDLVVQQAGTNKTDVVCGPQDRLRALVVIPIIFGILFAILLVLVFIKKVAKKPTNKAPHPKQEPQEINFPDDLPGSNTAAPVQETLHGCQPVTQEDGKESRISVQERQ

Consider anti-(CD3) monoclonal antibody OKT3, for which the % of Positive Cells came out at 2.1% in [1], 2.1% in assay [2] and 8% in [3].
Consider anti-(CD40) monoclonal antibody G28.5, for which, in assay [4], the % of Positive Cells is 92.1%.
The substance anti-(LeuM3) monoclonal antibody showed a % of Positive Cells in assay [5] of 2.5%.
In assay [6], anti-B7 monoclonal antibody B7-24 yielded a percentage of cells positive of 25 percent. Also, the % of Positive Cells in [7] is 16.8%. This substance yielded a % of Positive Cells in [8] of 12.6%. In [9], the T-cell proliferation in a secondary MLC; B7-24 0.025 µg/ml, CsA 3 x 10^-7 M (CPM (by the footnote)) turned out to be 6; the T-cell proliferation in a secondary MLC; B7-24 0.025 µg/ml, CsA 6 x 10^-7 M (CPM (by the footnote)) worked out at 6; the T-cell proliferation in a secondary MLC; B7-24 0.025 µg/ml, CsA 10^-7 M (CPM (by the footnote)) is 6; the T-cell proliferation in a secondary MLC; B7-24 0.025 µg/ml, no CsA (CPM (by the footnote)) was 47. Moreover, in [9], the T-cell proliferation in a secondary MLC; B7-24 0.25 µg/ml, CsA 3 x 10^-7 M (CPM (by the footnote)) turned out to be 2; the T-cell proliferation in a secondary MLC; B7-24 0.25 µg/ml, CsA 6 x 10^-7 M (CPM (by the footnote)) was 3; the T-cell proliferation in a secondary MLC; B7-24 0.25 µg/ml, CsA 10^-7 M (CPM (by the footnote)) stood at 3; the T-cell proliferation in a secondary MLC; B7-24 0.25 µg/ml, no CsA (CPM (by the footnote)) was 33. Besides, in assay [9], the T-cell proliferation in a secondary MLC; B7-24 2.5 µg/ml, CsA 3 x 10^-7 M (CPM (by the footnote)) stood at 3; the T-cell proliferation in a secondary MLC; B7-24 2.5 µg/ml, CsA 6 x 10^-7 M (CPM (by the footnote)) came to 3; the T-cell proliferation in a secondary MLC; B7-24 2.5 µg/ml, CsA 10^-7 M (CPM (by the footnote)) was determined as 3; the T-cell proliferation in a secondary MLC; B7-24 2.5 µg/ml, no CsA (CPM (by the footnote)) turned out to be 40. In assay [9], this substance yielded a T-cell proliferation in secondary MLC; B7-24 0.025 µg/ml, CsA 3 x 10^-6M of 939 CPM; a T-cell proliferation in secondary MLC; B7-24 0.025 µg/ml, CsA 3 x 10^-7M of 1570 CPM; a T-cell proliferation in secondary MLC; B7-24 0.025 µg/ml, CsA 6 x 10^-6M of 897 CPM; a T-cell proliferation in secondary MLC; B7-24 0.025 µg/ml, CsA 6 x 10^-7M of 1590 CPM. Moreover, in [9], the T-cell proliferation in secondary MLC; B7-24 0.025 µg/ml, CsA 10^-7M was 2820 CPM; the T-cell proliferation in secondary MLC; B7-24 0.025 µg/ml, no CsA stood at 29400 CPM; the T-cell proliferation in secondary MLC; B7-24 0.25 µg/ml, CsA 3 x 10^-6M was 545 CPM; the T-cell proliferation in secondary MLC; B7-24 0.25 µg/ml, CsA 3 x 10^-7M is 559 CPM. For the same substance, in [9], the T-cell proliferation in secondary MLC; B7-24 0.25 µg/ml, CsA 6 x 10^-6M was found to be 553 CPM; the T-cell proliferation in secondary MLC; B7-24 0.25 µg/ml, CsA 6 x 10^-7M amounted to 788 CPM; the T-cell proliferation in secondary MLC; B7-24 0.25 µg/ml, CsA 10^-6M is 601 CPM; the T-cell proliferation in secondary MLC; B7-24 0.25 µg/ml, CsA 10^-7M was 882 CPM. For the same substance, in assay [9], the T-cell proliferation in secondary MLC; B7-24 0.25 µg/ml, no CsA worked out at 20800 CPM; the T-cell proliferation in secondary MLC; B7-24 2.5 µg/ml, CsA 3 x 10^-6M is 609 CPM; the T-cell proliferation in secondary MLC; B7-24 2.5 µg/ml, CsA 3 x 10^-7M came out at 697 CPM; the T-cell proliferation in secondary MLC; B7-24 2.5 µg/ml, CsA 6 x 10^-6M stood at 971 CPM. For the same substance, in [9], the T-cell proliferation in secondary MLC; B7-24 2.5 µg/ml, CsA 6 x 10^-7M is 790 CPM; the T-cell proliferation in secondary MLC; B7-24 2.5 µg/ml, CsA 10^-6M was determined as 601 CPM; the T-cell proliferation in secondary MLC; B7-24 2.5 µg/ml, CsA 10^-7M amounted to 1160 CPM; the T-cell proliferation in secondary MLC; B7-24 2.5 µg/ml, no CsA came to 25200 CPM.
